# Assay results reported in the nanobody polyreactivity screen of Harvey et al. (2022).
# Experiment: yeast display, Sf9 membrane polyspecificity reagent, FACS + sequencing; frameworks hold sequencing errors
# Summary of the method: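 Using colony PCR, genes from sorted yeast display clones were amplified, then sequenced on MiSeq at 2 × 250 and filtered by CDR length. The clones had been stained with 10% biotinylated, detergent-solubilized Sf9 membrane reagent for 1 hour at 4 °C and sorted by FACS into low and high (top ~1%) gates on anti-HA and streptavidin fluorescence. Polyreactivity labels come from the gate of origin.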
row,Sequence,polyreactivity (PSR sort gate)
1,QVQLVESGGGLVQAGGSLRLSCAASGIIFRWYTMGWYRQAPGKERELVAAISSGGSTYYADSVKGRFTISRDNAKNTVYLQMNSLKPEDTAVYYCAARYITTYAYGYWGQGTQVTVSS,high polyreactivity
2,QVQLVESGGGLVQAGGSLRLSCAASGIIFRWYTMGWYRQAPGKERELVAAISTSTGSTYYADSVKGRFTISRDNAKNTVYLQMNSLKPEDTAVYYCAADYAYWNYESYYWGQGTQVTVSS,high polyreactivity
3,QVQLVESGGGLVQAGGSLRLSCAASGIIFRYAMGWYRQAPGKERELVARITVGSTYYADSVKGRFTISRDNAKNTVYLQMNSLKPEDTAVYYCAARVQHYLATDDYWGQGTQVTVSS,low polyreactivity
4,QVQLVESGGGLVQAGGSLRLSCAASGIIFRYYAMGWYRQAPGKERELVAAISSSTGNTYYADSVKGRFTISRDNAKNTVYLQMNSLKPEDTAVYYCAARTRQISIVGYNYWGQGTQVTVSS,high polyreactivity
5,QVQLVESGGGLVQAGGSLRLSCAASGIIFRYYAMGWYRQPPGKERELVASISRGGSTYYADSVKGRFTISRDNAKNTVYLQMNSLKPEDTAVYYCAADVYPVYLYGYEYWGQGTQVTVSS,high polyreactivity
6,QVQLVESGGGLVQAGGSLRLSCAASGIIFRYYTMGWYRQAPGKEREFVAAITGSSGSTYADSVKGRFTISRDNAKNTVYLQMNSLKPEDTAVYYCNADSYSIWVYGEYDYWGQGTQVTVSS,high polyreactivity
7,QVQLVESGGGLVQAGGSLRLSCAASGIIFSAYAMGWYRQAPGKERELVAAISSGGSTNYADSVKGRFTISRDNAKNTVYLQMNSLKPEDTAVYYCNAGERDVPNSYVAYREDYWGQGTQVTVSS,low polyreactivity
8,QVQLVESGGGLVQAGGSLRLSCAASGIIFSDYAMGWYRQAPGKERELVAAITGGGSTYYADSVKGRFTISRDNAKKTVDLQMNSLKPEDTAVFYCNADWARLWIRSTEVDYWGQGSQVTVSS,low polyreactivity
9,QVQLVESGGGLVQAGGSLRLSCAASGIIFSGYAMGWYRQAPGKERELVASIRSGSNTYYADSVKGRFTISRDNAKNTVYLQMNSLKPEDTAVYYCAARVVPATFRFIRYPHPYYYWGQGTQVTVSS,low polyreactivity
10,QVQLVESGGGLVQAGGSLRLSCAASGIIFSHNVMGWYRQAPGKERELVAAITYSGGSTYYADSVKGRFTISRDNAKNTVYLLMNSLKPEDTAVYYCNALGVSRRDYDYWGQGTQVTVSS,low polyreactivity
11,QVQLVESGGGLVQAGGSLRLSCAASGIIFSNYAMGWYRQAPGKERDLVAAITRSGGRTYYADSVKGRFTISRDNAKNTVYLQMNSLKPEDTAVYYCAATGRSGVLSSYYYWGQGTQVTVSS,high polyreactivity
12,QVQLVESGGGLVQAGGSLRLSCAASGIIFSPYAMGLYRQAPGKERELVAAISYSGGSTYYADSVKGRFTISRDNAKNTVYLQMNSLKPEDTAVYYCAVVYSYYLAVLGYCDYDYWGQGTQVTVSS,low polyreactivity
13,QVQLVESGGGLVQAGGSLRLSCAASGIIFSPYAMGWYRQAPGNERELVAAISYSGGSTYYADSVKGRFTISRDNAKNTVYLQMNSLKPEDTAVYYCAVVYSYYLAVLGYWDYDYWGQGTQVTVSS,low polyreactivity
14,QVQLVESGGGLVQAGGSLRLSCAASGIIFSSNAMGWYRQAPGKERELVAAISRRGGSTYYADSVKGRFTISRDNAKNTVYLQMNSLKPEDTAVYYCNALLYNGAGYDYWGQGSQVTVSS,high polyreactivity
15,QVQLVESGGGLVQAGGSLRLSCAASGIIFSSNAMGWYTQAPGKERELVAAISRRGGSTYYADSVKGRFTISRDNAKNSVYLQMNSLKPEDTAVYYCNALLYNGAGYDYWGQGTQVTVSS,high polyreactivity
16,QVQLVESGGGLVQAGGSLRLSCAASGIIFSSYAMGWYRQAPGKERELVAAITYNGGRTYYADSVKGRFTISRDNAKNTVYLQMNSLKPEDTAVYYCAARTYGGNVLRLDYWGQGTQVTVSS,high polyreactivity
17,QVQLVESGGGLVQAGGSLRLSCAASGIIFSWYAMGWYRQAPGKEREFVAAISKSGGRTYYADSVKGRFTISRDNAKNTVYLQMNSLKPEDTAVYYFATGISRDYIYIILRYDYWGQGTQVTVSS,low polyreactivity
18,QVQLVESGGGLVQAGGSLRLSCAASGIIFSYNAMGWYRQAPGKERELVAANNSSGGSTNYADSVKGRFTISRDNAKNTVYLQMNSLKPEDTAVYYCAARDATYYGVWRYYGIDDYWGQGTQVTVSS,low polyreactivity
19,QVQLVESGGGLVQAGGSLRLSCAASGIIFSYYALGWYRQAPGKERELVAAITRGGGRTYYADSVKGRFTISRDNAKNTVSLQMNSLKPEDTAVYYCNALSRYVENDYWGQGTQVTVSS,high polyreactivity
20,QVQLVESGGGLVQAGGSLRLSCAASGIIFSYYAMGWYRQAPGKERELVAAISSGGSTNYADSVKGRFTISRDNAKNTVYLQMNSLKPEDTAVYYCAPLYRDYDWIFEYWGQGTQVTVSS,low polyreactivity
21,QVQLVESGGGLVQAGGSLRLSCAASGIIFSYYAMGWYRQEPGKERELVAAIDSGGSTYYADSVKGRFTISRDNAKNTVYLQMNSLKPEDTAVYYCNADTARGVPVFPHDYWGQGTQVTVSS,low polyreactivity

row,Sequence,polyreactivity (PSR sort gate)
1,QVQLVESGGGLVQAGGSLRLSCAASGIIFTDYAMGWYRQAPGKERELVAAISSGGGSTYYADSVKGRFTISRDNAKNTVYLQMNSLKPEDTAVYYCAAEGYLISGAGDYLYDYYWGQGTQVTVSS,high polyreactivity
2,QVQLVESGGGLVQAGGSLRLSCAASGIIFTINAMGWYRQAPGKERELVAAISWGTGTTYYADSVKGRFTISRDNAKNTVYLQINSLKPEDTAVYYCAADGYDTYGYWGQGTQVTVSS,low polyreactivity
3,QVQLVESGGGLVQAGGSLRLSCAASGIIFTINAMGWYRQAPGKERELVARISRSVGSTTYADSVKGRFTISRDNAKNTVYLQMNSLKPEDTAVYYCAAQPYGYSYHYHRPWGLDYWGQGTQVTVSS,low polyreactivity
4,QVQLVESGGGLVQAGGSLRLSCAASGIIFTIYTMGWYRQAPGKERELVAAITRSGGSTYYADSVKGRFTISRDNAKNTVYLQMNSLKPEDTAVYYCAAEWQYPDGDDVGSWRYYYWGQGTQVTVSS,high polyreactivity
5,QVQLVESGGGLVQAGGSLRLSCAASGIIFTTYDMGWYRQAPGKERELVAAISSSTTNTYYADSVKGRFTISRDNAKNTVYLQMNSLKPEDTAVYYCAADGYSLDRYEYWGQGTQVTVSS,low polyreactivity
6,QVQLVESGGGLVQAGGSLRLSCAASGIIFTYAMGWYRPAPGKERELVAAIDWRGGRTYYADSVKGRFTISRDNAKNTVYLQMNSLKPEDTSVYYCGARLPGGTYYWGQGTQVTVSS,high polyreactivity
7,QVQLVESGGGLVQAGGSLRLSCAASGIIFTYAMGWYRQAPGKERELVAAIDWRGGRTYYADSVKGRFTISRDNAKNNVYLQMNSLKPEDTAVFFCAARLPGGTYYWGQGTQVTVSS,high polyreactivity
8,QVQLVESGGGLVQAGGSLRLSCAASGIIFVDYAMGWYRQAPGKEREFVAAITWSGGSTRYADSVKGRFTISRDNAKNTVYLQMNSLKPEDTAVYYCAALGYNVSSRGYYYWGQGTQVTVSS,low polyreactivity
9,QVQLVESGGGLVQAGGSLRLSCAASGIIFVENPMGWYRQAPGKERELVATITSGDTTNYADSVKGRFTISRDNAKNTVYLHMNSLKAEDTAVYYCAAERYEDFTEYDYWGQGTQVTVSS,low polyreactivity
10,QVQLVESGGGLVQAGGSLRLSCAASGIIFVRNARGWSRQAPGKERELVAAITGRGVSTYYADSVKGRFTISRDNAKNTVYLQMNSLNQEDTAVYYGAARYSSRGTYPRRYDYWGQGTQVTVSS,high polyreactivity
11,QVQLVESGGGLVQAGGSLRLSCAASGIIFVYYAMGWYRQAPGKERELVAAINWSGGSTYYADSVKGRFTISRDNAKNTVYLQMNSLKPEDTAVYYCAASSYITSDQRFYYWGQGTQVTVSS,high polyreactivity
12,QVQLVESGGGLVQAGGSLRLSCAASGIIFVYYDMGWYRQAPGKERELVASISRGGSTYYADSVKGRFTISRDNAKNTVYLQMNSLKPEDTAVYYCAAVPSYLGYWGQGTQVTVSS,high polyreactivity
13,QVQLVESGGGLVQAGGSLRLSCAASGIIFWKYAMGWYRQAPGKERELVAAISSRGGSTYYADSVKGRLTISRDNAKNTVYLQMNSLKPEDTAVYYCAGEDWYYGFDYWRQGTQVTVSS,high polyreactivity
14,QVQLVESGGGLVQAGGSLRLSCAASGIIFWYNARGWYRQAPGKERELVASISTGGRTYYADSVKGRFTISRDNAKNTVYLQMNSLKPEDTAVYYCAAASRVGFLYYYWGQGTQVTVSS,low polyreactivity
15,QVQLVESGGGLVQAGGSLRLSCAASGIIFWYYAMGWYRQAPGKERELVAAISSGGSTTYADSVKGRFTISRDNAKNTVYLQMNSLKPEDTAVYYCAAVWLSLFKVWVDTHEYDYWGQGTQVTVSS,low polyreactivity
16,QVQLVESGGGLVQAGGSLRLSCAASGIIFWYYAMGWYRQAPGKERELVASIDWSGGSTYYADSVKGRFTISRDNAKNTVYLQMKSLKPEDTAVYDCNAGSDIYWSAATYGYWGQGTQVTVSS,high polyreactivity
17,QVQLVESGGGLVQAGGSLRLSCAASGIIFYDNAMGWYRKAPGKERELVATITRSGDSTYYADSVKGRFTISRDNAKNTVYLQMNSLKPEDTAVYYCAKDTYGVLAYFQVSREYWGQGTQVTVSS,low polyreactivity
18,QVQLVESGGGLVQAGGSLRLSCAASGIIFYFYAMGWSRQAPGKERELVAAISSGGGSTYYADSVKGRFTISRDNAKNTVYLQMNSLKPEDTAVYYCAAKIGRNFDWGQGTQVTVSS,high polyreactivity
19,QVQLVESGGGLVQAGGSLRLSCAASGIIFYKNVMGWYRQAPGKERELVAAINRSGGRTYYADSVKGRFTISRDNAKNTVYLQMNSLKPEDTAVYYCARSGTVFGRTYDYWGQGTQVTVSS,high polyreactivity
20,QVQLVESGGGLVQAGGSLRLSCAASGIIFYLYTIGWYRQAPGKEREFVADISSGTTTYYADSVKGRFTISRDNAKNTVYLQMNSLKPEDTAVYYCNAQYNYYTWKLAYTFDYWGQGTQVTVSS,high polyreactivity
